Results on three molecules are retold here after paper PMC5037179 (Frontiers in Molecular Biosciences, 2016).

One assay has as its target IscU (Escherichia coli) (UniProt P0ACD4). As to conditions: cited from earlier work.
For assay [1], the target named is T1, IscS (E. coli, UniProt P0A6B7 1-404).
T1 construct: IscS, pyridoxal phosphate dependent cysteine desulfurase of the isc operon, E. coli; subcloned by PCR from bacterial genomic DNA; For MST only, IscS was labelled with the amine-reactive dye NT-647 (about 0.67 dye molecules per IscS, RED-NHS kit); unlabelled in all other experiments; also called desulfurase IscS; wild-type IscS; source: E. coli BL21(DE3), purified (Ni-NTA, TEV cleavage, gel …)
Kind of assay: NMR titration; competition: 15N HSQC of 100 uM 15N-labelled HscB in complex with unlabelled IscS (1:1), titrated with CyaY or apo-Fdx up to 1:1:3. The note with it: both partners purified.

Assay [2] concerns the target T1, IscS. Kind of assay: MST; IscS labelled with NT-647 at 52 nM, HscB serially diluted 1:1 from 600 uM (12 solutions); 20 mM Tris-HCl pH 8, 150 mM NaCl, 0.5 mM TCEP, 0.05% Tween-20; 25 C; 40-60% LED power, 17% IR-laser power; 1:1 stoichiometry assumed. As to conditions: both partners purified.

T1 sequence (P0A6B7 whole entry): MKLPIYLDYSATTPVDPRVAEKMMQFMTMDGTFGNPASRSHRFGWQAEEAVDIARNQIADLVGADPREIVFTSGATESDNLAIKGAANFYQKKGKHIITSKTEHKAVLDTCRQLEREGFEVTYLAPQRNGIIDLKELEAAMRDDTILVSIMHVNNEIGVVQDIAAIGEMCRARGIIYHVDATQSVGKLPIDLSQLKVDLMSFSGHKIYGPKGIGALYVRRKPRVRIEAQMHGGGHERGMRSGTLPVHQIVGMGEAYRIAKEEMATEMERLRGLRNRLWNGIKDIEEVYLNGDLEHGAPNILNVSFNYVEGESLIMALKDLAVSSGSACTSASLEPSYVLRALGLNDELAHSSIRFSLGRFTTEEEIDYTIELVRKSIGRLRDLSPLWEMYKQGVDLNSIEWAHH
Chain of IscU (Escherichia coli) (P0ACD4 whole entry): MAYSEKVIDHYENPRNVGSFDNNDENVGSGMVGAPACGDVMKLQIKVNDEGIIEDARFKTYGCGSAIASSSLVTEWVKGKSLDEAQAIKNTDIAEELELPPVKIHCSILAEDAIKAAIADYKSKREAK

Consider IscS (from UniProt P0A6B7), for which, in the assay with IscU (Escherichia coli), the Kd was 10 µM.

B1: apo-Fdx (natural protein, E. coli, UniProt P0A9R4 1-111, looked up)
chain: MPKIVILPHQDLCPDGAVLEANSGETILDAALRNGIEIEHACEKSCACTTCHCIVREGFDSLPESSEQEDDMLDKAWGLEPESRLSCQARVTDEDLVVEIPRYTINHAREH
notes: Fdx, ferredoxin of the isc operon, E. coli; subcloned by PCR from bacterial genomic DNA; also called ferredoxin; source: E. coli BL21(DE3), purified (Ni-NTA, TEV cleavage, gel filtration)
B1: the binding result with IscS [1] is given as “binds”.

B2: HscB (natural protein, E. coli)
chain: MDYFTLFGLPARYQLDTQALSLRFQDLQRQYHPDKFASGSQAEQLAAVQQSATINQAWQTLRHPLMRAEYLLSLHGFDLASEQHTVRDTAFLMEQLELREELDEIEQAKDEARLESFIKRVKKMFDTRHQLMVEQLDNETWDAAADTVRKLRFLDKLRSSAEQLEEKLLDF
notes: HscB, co-chaperone of the isc operon, E. coli; subcloned by PCR from bacterial genomic DNA; Uniformly 15N-labelled (HSQC) or 2H,15N-labelled (cross saturation) for NMR; unlabelled in MST, cross-linking and when added to 15N IscU; also called co-chaperone HscB; source: E. coli BL21(DE3), purified (Ni-NTA, TEV cleavage, gel filtration)
In turn, B2 showed a Kd in the assay with IscS [2] of 10 to 30 µM.

By Kd is commonly meant the concentration at which binding is half-saturated.
